Patent publication US20230203162A1 (NUMAB THERAPEUTICS, published 2023)

What was measured:
[1] = target: T1, plasma-membranous human MSLN on cell lines (H226, HPAC, H292, OVCAR-3, MeT-5A) (human, UniProt Q13421 296-598); assay: cell-based or functional assay
[2] = target: human serum albumin (hSA, Sigma-Aldrich A3782) (human, UniProt P02768 25-609); assay: SPR, hSA amine-coupled to CM5, antibody injected, pH 5.5, 1:1 Langmuir
[3] = target: T2, human recombinant CD3ε protein (Sino Biological) (human, UniProt P07766 23-126); assay: SPR, CD3ε amine-coupled to CM5, antibody injected; footnote: ka1 of a two-state fitting model
T2 construct: Bought protein; also called recombinant human CD3ε; human CD3ε

[4] = target: T2, human recombinant CD3ε protein (Sino …); assay: SPR, CD3ε amine-coupled to CM5, antibody injected
[5] = target: soluble mesothelin (sMSLN); assay: cell-based or functional assay
[6] = target: T1, plasma-membranous human MSLN on cell …; assay: cell-based or functional assay; remark: listed apart in the source
[7] = target: T1, plasma-membranous human MSLN on cell …; assay: flow cytometry on H292 cells, protein L-PE, 4PL fit
[8] = target: T1, plasma-membranous human MSLN on cell …; assay: cell-based or functional assay; remark: listed apart in the source
[9] = target: T1, plasma-membranous human MSLN on cell …; assay: flow cytometry on HPAC cells, protein L-PE, 4PL fit
[10] = target: T1, plasma-membranous human MSLN on cell …; assay: flow cytometry on Met-5A cells, protein L-PE, 4PL fit
[11] = target: T1, plasma-membranous human MSLN on cell …; assay: cell-based or functional assay; remark: listed apart in the source
[12] = target: soluble mesothelin (sMSLN); assay: cell-based or functional assay; remark: listed apart in the source
[13] = target: T1, plasma-membranous human MSLN on cell …; assay: flow cytometry on H226 cells, protein L-PE, 4PL fit
[14] = target: T2, human recombinant CD3ε protein (Sino …); assay: SPR, CD3ε amine-coupled to CM5, antibody injected; footnote: kd1 of a two-state fitting model
[15] = target: T1, plasma-membranous human MSLN on cell …; assay: cell-based or functional assay; remark: listed apart in the source
[16] = target: T1, plasma-membranous human MSLN on cell …; assay: cell-based or functional assay; remark: listed apart in the source
[17] = target: T1, plasma-membranous human MSLN on cell …; assay: cell-based or functional assay; remark: listed apart in the source
[18] = target: T3, recombinant human MSLN (purchased from Peprotech) (human, UniProt Q13421 296-598, limits assumed); assay: SPR (Biacore T200), human MSLN; which of the two formats (MSLN immobilized / antibody captured) not given
T3 construct: Bought protein; also called recombinant human mesothelin

[19] = target: T3, recombinant human MSLN (purchased from …); assay: SPR, MSLN immobilized on CM5, scFv as analyte, 1:1 Langmuir
[20] = target: T1, plasma-membranous human MSLN on cell …; assay: cELISA on H226 cells, HRP-Protein L
[21] = target: biotinylated MSLN (human MSLN in the MSLN/MUC16 competition ELISA) (human, UniProt Q13421 296-598, limits assumed, biotinylated); assay: competition ELISA, scFv titrated with biotinylated MSLN; competitor coated MUC16
[22] = target: T4, cynomolgus monkey MSLN on recombinant CHO cell line (cynomolgus monkey); assay: cELISA on CHO cells expressing cynomolgus monkey MSLN, HRP-Protein L
T4 construct: whole, on cells; also called plasma-membranous cynomolgus monkey MSLN

[23] = target: T5, recombinant cynomolgus monkey MSLN (purchased from Sino Biological) (cynomolgus monkey); assay: SPR, cynomolgus MSLN immobilized on CM5, scFv as analyte, 1:1 Langmuir
T5 construct: Bought protein

B1: PRO1872 (scMATCH3, MSLNlow KD×CD3×hSA) (other)
chain: DVVMTQSPSSLSASVGDRVTITCQASQIISSRSAWYQQKPGQPPKLLIYQASKLASGVPSRFSGSGSGTDFTLTISSLQPEDFATYYCQCTYIDSNFGAFGCGTKLTVLGGGGGSEVQLVESGGGLVQPGGSLRLSCAASGFSLSSYDMSWVRQAPGKGLAWIGASYASGPTYYASWAKGRFTISRDNSKNTVYLQMNSLRAEDTATYFCARGGWTGTSHSNIWGQGTLVTVSSGGGGSGGGGSGGGGSGGGGSDIQMTQSPSSLSASVGDRVTITCQSSQSVFSNNYLAWFQQKPGQSPKRLIYSASTLASGVPSRFSGSGSGTDFTLTISSLQPEDFATYYCLGSYACSSADCYVFGTGTKVTVLGGGGGSEVQLVESGGGLVQPGGSLRLSCAASGFSFSSSYWICWVRQAPGKCLEWVGCVFTGDGTTYYASWAKGRFTISRDNSKNTVYLQMNSLRAEDTATYFCARPVSVYYYGMDLWGQGTLVTVSSGGGGSGGGGSDIQMTQSPSSLSASVGDRVTITCQASESIGNYLAWYQQKPGKAPKLLIYSASTLASGVPSRFSGSGSGTDFTLTISSLQPEDFATYYCQSTDYGDSYIFGTGTKVTVLGGGGGSGGGGSGGGGSGGGGSEVQLVESGGGLVQPGGSLRLSCAASGISVSNDYYMCWVRQAPGKGLEWIGCISTYIGNTHYASWAKGRFTISRDNSKNTVYLQMNSLRAEDTAVYYCAKNAGYPGYRYAIDLWGQGTLVTVSS
notes: also called MSLN.CD3
EC50 CD8+ T cell activation with H226 cells, 50 ng/ml MSLN [1]: 200 pM
EC50 CD8+ T cell activation with H226 cells, 500 ng/ml MSLN [1]: 1120 pM
EC50 CD8+ T cell activation with H226 cells, no MSLN [1]: 22.9 pM
Kd [2]: 175 pM
koff [2]: 6.39e-05 s⁻¹
kon [2]: 366000 M⁻¹ s⁻¹
kon [3]: 293000 M⁻¹ s⁻¹
Kd [4]: 12100 pM
fold reduction of H226 killing potency with 500 ng/ml sMSLN [5]: 106 fold
shift of H226 killing potency with 100 ng/ml sMSLN [5]: 10 fold
fold killing potency against PRO2000, H292 cells [6]: 7 fold
fold killing potency against PRO2000, MeT-5A cells [6]: 16 fold
fold lower H226 killing potency against PRO2000, no sMSLN [6]: 20 fold
fold lower H226 killing potency against PRO2100, no sMSLN [6]: 10 fold
EC50 [7]: 709 pM
max. binding (MFI) [7]: 12200 MFI
EC50 CD8+ T cell activation, H226 cells [8]: 0.09 pM
EC50 CD8+ T cell activation, Met-5A cells [8]: 10.9 pM
EC50 target cell killing, H226 cells [8]: 5.31 pM
EC50 target cell killing, Met-5A cells [8]: 8.88 pM
EC50 [9]: 2160 pM
max. binding (MFI) [9]: 33300 MFI
EC50 [10]: 194 pM
max. binding (MFI) [10]: 11200 MFI
EC50 CD8+ T cell activation, H292 cells [11]: 34.1 pM
EC50 CD8+ T cell activation, HPAC cells [11]: 47.2 pM
EC50 target cell killing, H292 cells [11]: 91 pM
EC50 target cell killing, HPAC cells [11]: 30.3 pM
Delta 0-50 ng/mL sMSLN (x-fold change in H226 killing potency) [12]: 8.5 fold
Delta 0-500 ng/mL sMSLN (x-fold change in H226 killing potency) [12]: 78.2 fold
EC50 [13]: 1570 pM
max. binding (MFI) [13]: 467000 MFI
koff [14]: 0.00508 s⁻¹
Fold-diff Window (mean Met-5A EC50 / mean H226 EC50) [15]: 1.1 fold
average mean H226 EC50, cell killing (LDH release) [15]: 120 pM
average mean Met-5A EC50, cell killing (LDH release) [15]: 138 pM
EC50 H226 target cell killing, 50 ng/ml soluble mesothelin [16]: 636 pM
EC50 H226 target cell killing, 500 ng/ml soluble mesothelin [16]: 4650 pM
EC50 H226 target cell killing, no mesothelin [16]: 43.9 pM
EC50 target cell killing, H226 cells, 100 ng/ml sMSLN [17]: 130 pM
EC50 target cell killing, H226 cells, no sMSLN [17]: 13.4 pM
max. killing, H226 cells, 100 ng/ml sMSLN [17]: 60.7%
max. killing, H226 cells, no sMSLN [17]: 54%
Kd [18]: 187 pM
koff [18]: 4.96e-05 s⁻¹
kon [18]: 265000 M⁻¹ s⁻¹

B2: reference anti-MSLN scFv PRO1795 (scFv)
scFv: DIQMTQSPSSLSASVGDRVTITCQASESIGNYLAWYQQKPGKAPKLLIYSASTLASGVPSRFSGSGSGTDFTLTISSLQPEDFATYYCQSTDYGDSYIFGTGTKVTVLGGGGGSGGGGSGGGGSGGGGSEVQLVESGGGLVQPGGSLRLSCAASGISVSNDYYMCWVRQAPGKGLEWIGCISTYIGNTHYASWAKGRFTISRDNSKNTVYLQMNSLRAEDTAVYYCAKNAGYPGYRYAIDLWGQGTLVTVSS
notes: also called 54-22-H03-sc01
Kd [19]: 321 pM
koff [19]: 0.000183 s⁻¹
kon [19]: 568000 M⁻¹ s⁻¹
EC50 [20]: 250 pM
rel. EC50 (EC50, Amatuximab/EC50, scFv) [20]: 0.98 ratio
rel. Maximum binding (OD450-690 nm, scFv/OD450-690 nm, Amatuximab) [20]: 0.71 ratio
IC50 [21]: 20 pM
Maximum inhibition at highest sample conc. [21]: 99%
rel. IC50 (IC50, Amatuximab/IC50, scFv) [21]: 0.87 ratio
EC50 [22]: 760 pM
rel. EC50 (EC50, Amatuximab/EC50, scFv) [22]: 0.7 ratio
rel. Maximum binding (OD450-690 nm, scFv/OD450-690 nm, Amatuximab) [22]: 0.81 ratio
Kd [23]: 1080 pM
koff [23]: 0.0011 s⁻¹
kon [23]: 1.02e+06 M⁻¹ s⁻¹

B3: anti-MSLN scFv PRO1783 (scFv)
scFv: DIQMTQSPSSLSASVGDRVTITCQASQNIYSNLAWYQQKPGKAPKLLIYDASDLASGVPSRFSGSGSGTDFTLTISSLQPEDFATYYCQQVRSSSDIDNPFGTGTKVTVLGGGGGSGGGGSGGGGSGGGGSQVQLVESGGGLVQPGGSLRLSCAASGFSLSSYAMGWVRQAPGKGLEWIGYISTINNTYYASWAKGRFTISRDNSKNTVYLQMNSLRAEDTAVYYCAREIRSGWVDYGFSIWGQGTLVTVSS
notes: also called 54-01-G02-sc01
Kd [19]: 2910 pM
koff [19]: 0.00227 s⁻¹
kon [19]: 780000 M⁻¹ s⁻¹
EC50 [20]: 1440 pM
rel. EC50 (EC50, Amatuximab/EC50, scFv) [20]: 0.16 ratio
rel. Maximum binding (OD450-690 nm, scFv/OD450-690 nm, Amatuximab) [20]: 0.57 ratio
IC50 [21]: 500 pM
Maximum inhibition at highest sample conc. [21]: 99.2%
rel. IC50 (IC50, Amatuximab/IC50, scFv) [21]: 0.03 ratio
EC50 [22]: 12000 pM
rel. EC50 (EC50, Amatuximab/EC50, scFv) [22]: 0.03 ratio
rel. Maximum binding (OD450-690 nm, scFv/OD450-690 nm, Amatuximab) [22]: 0.89 ratio
Kd [23]: 30600 pM
koff [23]: 0.0527 s⁻¹
kon [23]: 1.72e+06 M⁻¹ s⁻¹
